Consider one molecule from patent US20020045591A1, “Methods and therapeutic compositions for treating cancer” (priority 1998, published 2002).

For this experiment, the target named is T1, LEF-1-β-catenin complex (Mus musculus, UniProt Q02248).
T1 construct: expressed in transfected cells; host or cells: CHO cells, transient transfection
T1 sequence (Q02248 1-781): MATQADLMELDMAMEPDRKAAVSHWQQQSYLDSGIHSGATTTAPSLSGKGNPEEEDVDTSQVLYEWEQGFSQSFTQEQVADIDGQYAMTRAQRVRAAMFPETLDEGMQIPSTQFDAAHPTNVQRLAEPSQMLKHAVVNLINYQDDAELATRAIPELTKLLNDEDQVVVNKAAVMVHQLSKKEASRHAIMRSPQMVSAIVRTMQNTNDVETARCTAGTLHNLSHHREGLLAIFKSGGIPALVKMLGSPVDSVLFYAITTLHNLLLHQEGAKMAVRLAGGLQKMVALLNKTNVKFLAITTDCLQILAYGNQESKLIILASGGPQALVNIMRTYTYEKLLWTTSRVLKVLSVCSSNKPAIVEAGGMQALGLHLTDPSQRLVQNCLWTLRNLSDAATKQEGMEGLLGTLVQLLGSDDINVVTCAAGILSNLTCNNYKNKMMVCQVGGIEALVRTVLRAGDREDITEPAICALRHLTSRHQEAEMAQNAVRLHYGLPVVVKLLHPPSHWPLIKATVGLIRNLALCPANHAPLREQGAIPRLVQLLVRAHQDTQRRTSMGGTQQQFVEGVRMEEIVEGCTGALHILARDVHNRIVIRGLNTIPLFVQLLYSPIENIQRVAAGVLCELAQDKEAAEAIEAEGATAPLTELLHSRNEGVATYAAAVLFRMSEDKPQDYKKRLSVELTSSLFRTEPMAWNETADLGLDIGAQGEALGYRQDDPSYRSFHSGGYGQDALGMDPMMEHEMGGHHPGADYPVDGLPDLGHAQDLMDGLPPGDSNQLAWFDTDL
Kind of experiment: Competition with LEF-1 for β-catenin binding (HA-LEF-1 immunoprecipitation, CHO cells). The settings on record: increasing amounts of N-cadherin tail cDNA, FIG. 8. An excerpt:
Immunoblotting and immunoprecipitation: The following antibodies were used: polyclonal pan-cadherin or monoclonal anti cadherin (CH-19) and polyclonal anti β-catenin antibodies were from Sigma (Holon, Israel). Monoclonal anti β-catenin, 5H10 (from M. Wheelock), anti IL2Rα (from UBI), anti flag (M2, from IBI), anti HA (clone 12CA5, from Boehringer Mannheim, Germany), anti GFP (polyclonal, from Clontech, Palo Alto, Calif.), anti LEF-1 (polyclonal, kindly provided by Dr. R. Grosschedl). Secondary antibodies for Western blotting were goat anti rabbit or anti mouse conjugated to HRP (Amersham, Buckinghampshire, UK), and for immunofluorescence analysis the secondary antibodies were FITC-goat anti mouse (Cappel, USA) or rhodamine-anti rabbit antibodies (from Jackson Immuno-Research, West Grove, Pa.). […]
The N-cadherin tail inhibits the formation of a LEF-1-β-catenin complex: The inhibition by N-cadherin of β-catenin driven-transactivation could result from either displacement of LEF-1 binding to β-catenin by N-cadherin, or by formation of a ternary complex (cadherin-LEF-1-β-catenin) that has no transactivation potential. […] After transfection, LEF-1 was immunoprecipitated with anti HA antibody and the associated β-catenin was detected by Western blot analysis (FIG. 8A). […]

B1: N-cadherin tail: Cytoplasmic domain of chicken N-cadherin tagged with a Flag epitope (protein)
chain: MKRRDKERQAKQLLIDPEDDVRDNILKYDEEGGGEEDQDYDLSQLQQPDTVEPDAIKPVGIRRLDERPIHAEPQYPVRSAAPHPGDIGDFINEGLKAADNDPTAPPYDSLLVFDYEGSGSTAGSLSSLNSSSSGGEQDYDYLNDWGPRFKKLADMYGGGDD
modifications: left off: small tags and cut ends
In the case of B1, the “β-catenin binding to LEF-1” value is recorded as “inhibited β-catenin binding to LEF-1 in a dose dependent manner”.
